Test results reported in patent US20250163168A1, “NOVEL ANTIBODIES AND ANTIBODY CONJUGATES FOR THE TREATMENT OF METABOLIC DISORDERS” (PFIZER INC., priority 2023, published 2025).

Key:
[1] = tested on: diet induced obese (DIO) male hGIPR mice; experiment: Oral glucose tolerance test (OGTT) in DIO male hGIPR mice; assay type: in vivo, mouse; details: single dose 1 mpk, versus IgG (FIG. 5B)
Source text: To test the efficacy of anti-GIPR antibodies GIPR-0107 and GIPR-2767 in vivo, humanized mice expressing hGIPR were made in which human GIPR is expressed under the control of the endogenous mouse Gipr locus while knocking out the mouse Gipr gene. Human GIPR cDNA-SV40 pA was inserted in-frame with mouse Gipr at the end of exon 2 (1st coding exon) utilizing CRISPR/Cas9 technology. Insertion of human GIPR cDNA and disruption of mouse Gipr was validated by genotyping, and human GIPR mRNA expression was confirmed by quantitative PCR. These hGIPR mice were used to measure the in vivo efficacy of GIPR-0107 and GIPR-2767 using oral glucose tolerance test (OGTT) and weight gain prevention studies.
Mice were singly housed, maintained on a 12-hour light/12-hour dark cycle, and received food and wr ad libitum. Prior to the start of the study, mice were weighed and randomized into groups based on body weight. […] Before dosing, mice were bled vial tail snip to obtain a basal blood glucose reading by AlphaTRAK handheld glucometer, and at time 0, mice were dosed with 1.5 g/kg glucose by oral gavage. Blood glucose was measured by glucometer at 15 min, 30 min, 60 min, and 120 min after glucose administration. […] All residuals were evaluated for meeting the normality assumption with the Shapiro-Wilks Test and Q-Q Plots and the sphericity and homoscedasticity assumption by the residual plots and Bartlett's test. […]

mouse GIPR/GIP = biological target: T1, mouse GIPR/GIP (Mus musculus, UniProt Q0P543); experiment: Cross-species activity to mouse GIPR/GIP
T1 sequence (Q0P543 19-460): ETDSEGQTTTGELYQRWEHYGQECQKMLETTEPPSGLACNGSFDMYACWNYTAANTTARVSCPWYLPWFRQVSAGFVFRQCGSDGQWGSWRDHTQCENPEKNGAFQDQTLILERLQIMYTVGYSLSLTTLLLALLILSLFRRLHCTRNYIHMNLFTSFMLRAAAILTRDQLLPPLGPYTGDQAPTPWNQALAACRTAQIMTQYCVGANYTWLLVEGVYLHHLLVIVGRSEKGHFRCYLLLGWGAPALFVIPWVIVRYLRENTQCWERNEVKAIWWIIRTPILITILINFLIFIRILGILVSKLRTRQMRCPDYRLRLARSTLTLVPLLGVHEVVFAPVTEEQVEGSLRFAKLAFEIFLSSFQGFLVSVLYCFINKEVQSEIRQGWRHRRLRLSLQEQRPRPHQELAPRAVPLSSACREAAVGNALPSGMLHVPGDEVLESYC

Human GIPR ECD = biological target: T2, Human GIPR ECD (Homo sapiens, UniProt P48546); experiment: Kinetic evaluation of anti-GIPR antibody by surface plasmon resonance (SPR); set-up: made in house; details: SPR at 37° C., captured antibody, 1:1 binding model
T2 sequence (P48546 with tags, fused parts or gaps): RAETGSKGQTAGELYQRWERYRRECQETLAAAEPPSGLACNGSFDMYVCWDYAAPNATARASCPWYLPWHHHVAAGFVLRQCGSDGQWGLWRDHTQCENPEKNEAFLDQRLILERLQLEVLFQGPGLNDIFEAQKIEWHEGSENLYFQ
Method: Human GIPR ECD (amino acid sequence of SEQ ID NO: 33) was prepared. An anti-human Fc sensor chip was prepared by amine coupling of anti-human IgG antibody (catalog number BR-1008-39, Cytiva) to all flow cells of a carboxymethylated dextran coated sensor chip (CM5) (catalog number BR100530, Cytiva) according to the manufacturer's protocols. The flow cells were activated by injecting a 1:1 mixture of 400 mM 1-Ethyl-3-(3-dimethylaminopropyl) carbodiimide hydrochloride (EDC) and 100 mM N-hydroxysuccinimide (NHS) for 7 minutes at a flow rate of 10 μL/minute. Anti-human IgG antibody was diluted to ˜12.5 μg/mL in 10 mM sodium acetate pH 5.0 and injected over all flow cells for 7 minutes at 10 μL/minute. All flow cells were blocked with 1M ethanolamine-HCl (ETH) for 7 minutes at 10 μL/minute. Final immobilization levels of the capture antibody were approximately 12,000 resonance units (RU). […]
Flow cell 1 was used as a reference surface. […] Rate constants and affinities were determined by fitting the data to a 1:1 binding model in BIAcore™ Insight Evaluation software version 3.0.12 (GE Healthcare).
After antibody capture, dilutions of the human GIPR ECD proteins were flowed over the sensor chip surface and the association rate constant (ka), dissociation rate constant (kd), and KD values were determined for binding to human GIPR ECD (Table 5).

2G10: fully human monoclonal anti-GIPR antagonist antibody portion of AMG 133 (maridebart cafraglutide); benchmark antibody [reference compound]
baseline glucose adjusted AUC in OGTT [1]: not significantly different than IgG | cross-reactivity to additional species such as mouse GIPR (mouse GIPR/GIP): not cross-reactive | Kd (Human GIPR ECD): 19.2 nM
